Results taken from article PMC12355267, “Human Helicase DDX5 is Hijacked by SARS-CoV‑2 Nsp13 Helicase to Enhance RNA Unwinding” (ACS Omega, 2025).

B1: RecA1 domain of DDX5 (1–303) (domain or fragment, human, UniProt P17844 1-303, looked up)
chain: MSGYSSDRDRGRDRGFGAPRFGGSRAGPLSGKKFGNPGEKLVKKKWNLDELPKFEKNFYQEHPDLARRTAQEVETYRRSKEITVRGHNCPKPVLNFYEANFPANVMDVIARQNFTEPTAIQAQGWPVALSGLDMVGVAQTGSGKTLSYLLPAIVHINHQPFLERGDGPICLVLAPTRELAQQVQQVAAEYCRACRLKSTCIYGGAPKGPQIRDLERGVEICIATPGRLIDFLECGKTNLRRTTYLVLDEADRMLDMGFEPQIRKIVDQIRPDRQTLMWSATWPKEVRQLAEDFLKDYIHINIG
notes: human DDX5, RecA1 domain with the N-terminal region, residues 1-303; probably as DDX5ΔC (pETM-13, His-tag), surmised; source: E. coli (cloned from the gene optimized for E. coli expression), purified
B2: labeled RecA1 domain of DDX5 (domain or fragment, human, UniProt P17844 1-303, looked up)
chain: B1 chain
modifications: fluorescent label (dye and site not stated)
notes: human DDX5, RecA1 domain with the N-terminal region, residues 1-303; also called fluorescent RecA1; source: E. coli (cloned from the gene optimized for E. coli expression), purified, then labeled
B3: full-length DDX5 (flDDX5) (enzyme, human, UniProt P17844 1-614, looked up)
chain: MSGYSSDRDRGRDRGFGAPRFGGSRAGPLSGKKFGNPGEKLVKKKWNLDELPKFEKNFYQEHPDLARRTAQEVETYRRSKEITVRGHNCPKPVLNFYEANFPANVMDVIARQNFTEPTAIQAQGWPVALSGLDMVGVAQTGSGKTLSYLLPAIVHINHQPFLERGDGPICLVLAPTRELAQQVQQVAAEYCRACRLKSTCIYGGAPKGPQIRDLERGVEICIATPGRLIDFLECGKTNLRRTTYLVLDEADRMLDMGFEPQIRKIVDQIRPDRQTLMWSATWPKEVRQLAEDFLKDYIHINIGALELSANHNILQIVDVCHDVEKDEKLIRLMEEIMSEKENKTIVFVETKRRCDELTRKMRRDGWPAMGIHGDKSQQERDWVLNEFKHGKAPILIATDVASRGLDVEDVKFVINYDYPNSSEDYIHRIGRTARSTKTGTAYTFFTPNNIKQVSDLISVLREANQAINPKLLQLVEDRGSGRSRGRGGMKDDRRDRYSAGKRGGFNTFRDRENYDRGYSSLLKRDFGAKTQNGVYSAANYTNGSFGSNFVSAGIQTSFRTGNPTGTYQNGYDSTQQYGSNVPNMHNGMNQQAYAYPATAAAPMIGYPMPTGYSQ
notes: human DEAD-box helicase DDX5, native full-length gene in pET30a, 614 residues (1-614); also called full-length DDX5 (1–614); unlabeled flDDX5

Key:
[1] = biological target: T1, SARS-CoV-2 Nsp13 helicase (SARS-CoV-2, UniProt P0DTD1 5325-5925); assay: MST; conditions: both partners purified
T1 construct: also called Nsp13 helicase of SARS-CoV-2

[2] = biological target: T1, SARS-CoV-2 Nsp13 helicase; conditions: both partners purified

Row | Binder | IC50 [1] [µM] | Kd [2] [µM]
1 | B1 | 16.2 | –
2 | B2 | – | 9.1 ± 1.3
3 | B3 | 0.325 | –
